This is an account of results in US20240067734A1 (Hoffmann-La Roche, published 2024).

Broadly, the EC50 (read off the curve) is the concentration at which the effect is half-maximal. The low end stands for an effect from little substance, the high end for a need for much substance. As usually defined, the EC50 is the concentration giving half of the maximal effect. In general, Kd refers to the free concentration of one partner at which half of the binding sites on the other are occupied at equilibrium, for simple one-to-one binding. A low value points to a tighter complex.

For test [1], the target named is T1, CEA expressed on LS180 tumor cells (human, UniProt P06731 35-685).
T1 construct: whole, on cells; also called carcinoembryonic antigen; CEACAM5
T1 sequence (looked up): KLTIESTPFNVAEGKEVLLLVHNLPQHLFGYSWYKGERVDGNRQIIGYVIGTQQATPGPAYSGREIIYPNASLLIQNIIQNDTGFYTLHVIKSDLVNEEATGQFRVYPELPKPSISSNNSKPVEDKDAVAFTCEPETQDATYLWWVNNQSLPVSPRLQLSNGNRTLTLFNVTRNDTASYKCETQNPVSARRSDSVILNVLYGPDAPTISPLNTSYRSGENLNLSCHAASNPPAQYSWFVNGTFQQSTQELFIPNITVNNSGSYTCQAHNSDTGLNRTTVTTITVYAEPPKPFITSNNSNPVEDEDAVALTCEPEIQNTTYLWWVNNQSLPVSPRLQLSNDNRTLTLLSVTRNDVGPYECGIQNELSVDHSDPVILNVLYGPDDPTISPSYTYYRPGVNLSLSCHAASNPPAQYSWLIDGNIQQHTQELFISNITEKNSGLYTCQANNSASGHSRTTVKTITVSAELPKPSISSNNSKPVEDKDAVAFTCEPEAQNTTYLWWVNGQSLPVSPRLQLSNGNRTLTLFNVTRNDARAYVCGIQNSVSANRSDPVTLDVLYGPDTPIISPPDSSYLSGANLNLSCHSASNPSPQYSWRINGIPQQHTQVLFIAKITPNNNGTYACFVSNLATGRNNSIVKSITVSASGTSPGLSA
Briefly: flow cytometry on CEA-positive LS180 cells, anti-human Fc secondary antibody. As for the experimental part: (§1) Viability of NK92 cells or tumor cells (MKN-45, LS180) was checked and cells were re-suspended and adjusted to a density of 1 mio cells/ml. 100 μl per well of this cell suspension (containing 0.1 mio cells) were seeded into a 96 well round bottom plate. The plate was centrifuged for 4 min at 400×g and the supernatant was removed. Then 40 μl of the diluted antibodies or FACS buffer were added to the cells and incubated for 30 min at 4° C. After the incubation the cells were washed twice with 150 μl FACS buffer per well. […] The cells were incubated for an additional 30 min at 4° C. To remove unbound antibody, the cells were washed again twice with 150 μl per well FACS buffer. To fix the cells, 100 μl of FACS buffer containing 1% PFA were added to the wells. Before measuring, the cells were re-suspended in 150 μl FACS buffer. The fluorescence was measured using a BD flow cytometer.
(Flow cytometry measures light scatter and fluorescence of single cells or particles in a stream.)

The target in test [2] is T1, CEA expressed on LS180 tumor cells. The description is as above. As for the experimental part:
as §1
The source holds these as a separate data set.

Test [3] has as its target T2, human NKG2D expressed on cells (human, UniProt P26718 1-216).
T2 construct: the cell type is named under assay; also called NKG2D on NK92 cells; HEK293T human NKG2D
T2 chain: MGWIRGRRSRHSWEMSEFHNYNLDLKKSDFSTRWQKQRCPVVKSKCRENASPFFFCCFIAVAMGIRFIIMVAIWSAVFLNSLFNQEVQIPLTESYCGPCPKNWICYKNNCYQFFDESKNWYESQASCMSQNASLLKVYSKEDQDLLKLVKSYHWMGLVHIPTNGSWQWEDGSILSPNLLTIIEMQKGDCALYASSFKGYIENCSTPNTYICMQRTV
Briefly: flow cytometry on NKG2D-positive NK92 cells, anti-human Fc secondary antibody. As for the experimental part:
as §1

In test [4] the target is T2, human NKG2D expressed on cells. Briefly: flow cytometry on NK cells (CD3- CD56+) within freshly isolated human PBMCs, anti-human Fc secondary antibody. On the procedure: (§2) Viability of freshly isolated peripheral blood mononuclear cells (PBMCs) was checked and cells were adjusted to a density of 1 mio cells/ml in FACS buffer. 100 μl per well of the PBMCs (containing 0.1 mio cells) were seeded into a 96 well round bottom plate. The plate was centrifuged for 4 min at 400×g and the supernatant was removed. Then 0.5 μl FC BLOCK™ (BD Bioscience) in 20 μl total volume per well were added and the plate was incubated for 30 min at 4° C. Supernatant was removed and then 40 μl of the diluted anti-NKG2D antibodies were added to the cells and incubated for additional 30 min at 4° C. After the incubation, the cells were washed twice with 150 μl FACS buffer per well. […] The cells were incubated for an additional 30 min at 4° C. To remove unbound antibody, the cells were washed again twice with 150 μl per well FACS buffer. To fix the cells, 100 μl of FACS buffer containing 1% PFA were added to the wells. Before measuring the cells were re-suspended in 150 μl FACS buffer. The fluorescence was measured using a BD flow cytometer.

Test [5] has the same target. Briefly: flow cytometry on CD8 T cells (CD3+ CD8+) within freshly isolated human PBMCs, anti-human Fc secondary antibody. On the procedure:
as §2

Test [6] has the same target. Briefly: flow cytometry on NK92 cells, PE anti-human Fc secondary antibody.
Test [7] has the same target. Briefly: flow cytometry; NK92 cells.
For a further test, the target named is T3, his avi huNKG2D ECD (human, biotinylated at the avi-tag (in the ELISA)).
T3 construct: Human NKG2D ECD with N-terminal H6-avi tags, forms non-covalent dimers; also called recombinant human NKG2D
T3 chain: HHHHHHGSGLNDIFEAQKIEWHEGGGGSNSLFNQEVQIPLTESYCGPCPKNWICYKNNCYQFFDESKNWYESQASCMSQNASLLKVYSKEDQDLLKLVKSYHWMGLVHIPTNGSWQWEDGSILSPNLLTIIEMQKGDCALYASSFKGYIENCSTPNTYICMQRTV
Briefly: SPR Biacore T200; antigen captured via anti-His, bispecific analyte. On the procedure: (§3) On a CM5 chip, an anti-penta-His capture antibody (Qiagen Penta-His Antibody, BSA-free; #34660) was immobilized by standard amine coupling on flow cells 2 and 3 at approximately 12′000 RU. […] Regeneration at the level of the anti-H6 tag capture antibody was achieved by 2 pulses of 10 mM glycine/HCl pH 2.0 for 60 s. Data were double-referenced against the unimmobilized flow cell 1 and a zero concentration of the analyte. The sensorgrams of the analytes were fitted to a simple 1:1 Langmuir interaction model.

Another test deals with T4, hu N(A2B2)A-avi-His (human).
T4 construct: Construct containing the A2 domain of human CEA, with avi and His tags; also called human CEA (A2 domain)
T4 chain: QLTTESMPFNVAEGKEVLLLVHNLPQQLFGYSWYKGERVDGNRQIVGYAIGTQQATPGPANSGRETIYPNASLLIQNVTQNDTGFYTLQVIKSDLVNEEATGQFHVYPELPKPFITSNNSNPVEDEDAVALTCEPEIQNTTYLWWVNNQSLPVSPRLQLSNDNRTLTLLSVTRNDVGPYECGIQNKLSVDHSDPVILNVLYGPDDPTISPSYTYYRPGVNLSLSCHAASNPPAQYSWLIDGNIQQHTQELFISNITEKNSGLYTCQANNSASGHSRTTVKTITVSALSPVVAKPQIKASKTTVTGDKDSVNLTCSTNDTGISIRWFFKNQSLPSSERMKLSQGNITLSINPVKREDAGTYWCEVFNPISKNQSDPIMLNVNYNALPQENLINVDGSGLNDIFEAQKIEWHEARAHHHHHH
The description is as above. As for the experimental part:
as §3

Like-named read-outs stand apart in the source and are kept apart here.

B1: anti-CEA antibody B9 (IgG) (antibody, V domains shown)
VH: VQLVESGGGLVQPGRSLRLSCAASGFTVSSYWMHWVRQAPGKGLEWVGFIRNKANGGTTEYAASVKGRFTISRDDSKNTLYLQMNSLRAEDTAVYYCARDRGLRFYFDYWGQGTTVTVSS
VL: QAVLTQPASLSASPGASASLTCTLRRGINVGAYSIYWYQQKPGSPPQYLLRYKSDSDKQQGSGVSSRFSASKDASANAGILLISGLQSEDEADYYCMIWHSGASAVFGGGTKLTVL
notes: IgG
Turning to B1, the half-maximal effective concentration (EC50 (read off the curve)) in test [1] and in test [2] was ~2 nM throughout.

B2: NKG2D×CEA bispecific antibody, anti-NKG2D 395 (C50S) / anti-CEA B9, M format (bispecific antibody, V domains shown)
VH 1: QEQLEQSGGGLVTPGGSLKLCCTASGFDFNTFWMTWVRQAPGKGLEWIGSIHGGSGSRDYASWVNGRFTLSRDIDQSTACLQVNSLTAADTAMYYCARPGYRSWSKTFDLWGQGTMVTVSS
VL 1: DIQMTQSPSSLSASVGDRVTITCRASQDISGALNWYQQKPGKAPNLLIYAASSLQSGVPSRFSGSGSGTDYTLTISSLQPEDFATYYCQQANSFPLTFGGGTKVEIK
VH 2: VQLVESGGGLVQPGRSLRLSCAASGFTVSSYWMHWVRQAPGKGLEWVGFIRNKANGGTTEYAASVKGRFTISRDDSKNTLYLQMNSLRAEDTAVYYCARDRGLRFYFDYWGQGTTVTVSS
VL 2: QAVLTQPASLSASPGASASLTCTLRRGINVGAYSIYWYQQKPGSPPQYLLRYKSDSDKQQGSGVSSRFSASKDASANAGILLISGLQSEDEADYYCMIWHSGASAVFGGGTKLTVL
notes: also called monovalent format M
For B2, the half-maximal effective concentration (EC50 (read off the curve)) in [2] is ~10 nM; in [3], ~4 nM; in test [4] it was ~5 nM; in test [5], ~5 nM.

B3: bispecific NKG2D×CEA antibody in M format, ADI27743 / huA5B7 (bispecific antibody, human IgG1, kappa, L234A L235A)
heavy 1: not shown
light 1: QVQLQQWGAGLLKPSETLSLTCAVYGGSFSGYYWSWIRQPPGKGLEWIGEIDHSGSTNYNPSLKSRVTISVDTSKNQFSLKLSSVTAADTAVYYCARARGPWSFDPWGQGTLVTVSSASVAAPSVFIFPPSDEQLKSGTASVVCLLNNFYPREAKVQWKVDNALQSGNSQESVTEQDSKDSTYSLSSTLTLSKADYEKHKVYACEVTHQGLSSPVTKSFNRGEC
heavy 2: not shown
light 2: EIVLTQSPATLSLSPGERATLSCRASSSVTYIHWYQQKPGQAPRSWIYATSNLASGIPARFSGSGSGTDFTLTISSLEPEDFAVYYCQHWSSKPPTFGQGTKLEIKRTVAAPSVFIFPPSDRKLKSGTASVVCLLNNFYPREAKVQWKVDNALQSGNSQESVTEQDSKDSTYSLSSTLTLSKADYEKHKVYACEVTHQGLSSPVTKSFNRGEC
notes: also called ADI27743 bispecific
For the molecule B3, in test [6], the binding result is “binds”.

B4: NKG2D×CEA bispecific antibody in M format, P1AE4980 / huA5B7 (bispecific antibody, human IgG1, kappa, L234A L235A)
heavy 1: not shown
heavy 2: EVQLLESGGGLVQPGGSLRLSCAASGFTFTDYYMNWVRQAPGKGLEWLGFIGNKANAYTTEYSASVKGRFTISRDKSKNTLYLQMNSLRAEDTATYYCTRDRGLRFYFDYWGQGTTVTVSSASTKGPSVFPLAPSSKSTSGGTAALGCLVEDYFPEPVTVSWNSGALTSGVHTFPAVLQSSGLYSLSSVVTVPSSSLGTQTYICNVNHKPSNTKVDEKVEPKSCDKTHTCPPCPAPEAAGGPSVFLFPPKPKDTLMISRTPEVTCVVVDVSHEDPEVKFNWYVDGVEVHNAKTKPREEQYNSTYRVVSVLTVLHQDWLNGKEYKCKVSNKALGAPIEKTISKAKGQPREPQVCTLPPSRDELTKNQVSLSCAVKGFYPSDIAVEWESNGQPENNYKTTPPVLDSDGSFFLVSKLTVDKSRWQQGNVFSCSVMHEALHNHYTQKSLSLSP
light 1: QEQLVQSGAEVKKPGESLKISCKGSGFDFNTFWMTWVRQMPGKGLEWMGSIHGGSGSRDYSPSFQGQVTISADIDQSTAYLQWSSLKASDTAMYYCARPGYRSWSKTFDLWGQGTTVTVSSASVAAPSVFIFPPSDEQLKSGTASVVCLLNNFYPREAKVQWKVDNALQSGNSQESVTEQDSKDSTYSLSSTLTLSKADYEKHKVYACEVTHQGLSSPVTKSFNRGEC
light 2: EIVLTQSPATLSLSPGERATLSCRASSSVTYIHWYQQKPGQAPRSWIYATSNLASGIPARFSGSGSGTDFTLTISSLEPEDFAVYYCQHWSSKPPTFGQGTKLEIKRTVAAPSVFIFPPSDRKLKSGTASVVCLLNNFYPREAKVQWKVDNALQSGNSQESVTEQDSKDSTYSLSSTLTLSKADYEKHKVYACEVTHQGLSSPVTKSFNRGEC
notes: also called NKG2D×CEA bispecific antibody (humanized anti-NKG2D antibody variant P1AE4980, M format)
With B4, the EC50 in [7] was determined as 7.38 nM. Besides, the figures for the Kd with his avi huNKG2D ECD and with hu N(A2B2)A-avi-His were 12.6 nM and 3.45 nM, respectively. Moreover, in [6], the “EC50 (read off the curve)” value was ~3 nM.
